Results from patent US20130101549A1 (Biogen, published 2013).
Blank lines part the entries; values can stand above or below the binder they belong to.

What was measured:
EGFR on MDA-MB-468 cells = target: T1, EGFR on MDA-MB-468 cells (UniProt P00533 25-1210, limits assumed); test: FACS on MDA-MB-468 cells (EGFR+, HER2-)
T1 construct: whole, on cells; also called MDA-MB-468 tumor cell line (EGFR+, HER2-)

[1] = target: T2, human HER2/ErbB2 on cells (human, UniProt P04626 23-1255); test: flow cytometry on CHO cells expressing human HER2
T2 construct: whole, on cells; also called hHER2/ErbB2; wild type HER2/ErbB
Description: CHO cells (Chinese Hamster Ovary cells) stably transfected with hHER2 expression vector and selected in G418 containing medium. G418 resistant clones were pooled and split 24 hours prior to the setup of the assay to obtain 70% confluent monolayer. Routinely, CHO cell line was maintained within 20 passages. Cells were lifted with cell dissociation buffer (Gibco catalog #13151-014), counted, washed and adjusted to 1×10⁶ cells/ml and one ml of cells were then added to each tube (12×75 mm tube Falcon catalog #352054). Cells were pelleted and supernatant removed by centrifugation at 1200 rpm for 5 min and 100 μl of diluted antibodies were then added to the cell pellet. Purified Fabs were tested at a starting concentration of either 210 or 60 μg/ml with 1:3 dilutions in FACS buffer, down to 0.001 μg/ml. FACS buffer used throughout the assay was PBS (without Ca^{+±}/Mg^{+±}) containing 1% BSA (Sigma catalog #A-7906) and 0.1% Sodium Azide (Sigma catalog #S2002). Samples were allowed to incubate on ice for 1 hour and 15 minutes then were washed with 2 ml FACS buffer and centrifuged at 1200 rpm for 5 minutes at 4° C. The supernatant was aspirated and 100 μl of the secondary detection antibody was added to each corresponding tube in FACS buffer. Samples were then incubated for 30 minutes on ice, in the dark. Cells were washed as described above, then, re-suspended in 250 μl FACS buffer per tube/sample.
A full titration was performed on MCF7 and SKBR3 tumor cell lines, and human Her2-CHO and murine Her2-CHO cell lines in order to calculate an approximate EC50 (data not shown, see summary in Table 1).

Her2-Fc D1 (MR066) = target: T3, Her2-Fc D1 (MR066); test: ELISA, HER2-Fc construct captured by anti-huFc, Fab from 1 ug/ml in 5-fold steps, HRP anti-kappa/lambda
T3 construct: also called ErbB2-Fc Domain 1
T3 chain: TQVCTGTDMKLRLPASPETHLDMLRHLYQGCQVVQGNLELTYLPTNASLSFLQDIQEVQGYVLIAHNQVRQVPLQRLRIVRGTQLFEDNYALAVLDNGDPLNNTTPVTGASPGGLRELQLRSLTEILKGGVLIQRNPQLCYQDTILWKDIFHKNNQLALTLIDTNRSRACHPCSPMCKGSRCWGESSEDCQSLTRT
Description: (§1) Nunc Maxisorp ELISA plates were coated with 5 ug/ml rabbit pAbs anti-human Fc gamma in PBS overnight at 4 degrees. Plates were washed one time with PBST (PBS, 0.05% tween 20) and blocked with 1% BSA in PBS for one hour at room temperature. Plates were washed one time with PBST and incubated with 1 ug/ml HER2-Fc fusion protein for one hour. Plates were washed three times with PBST and dilutions of Fab (four 5-fold serial dilutions, starting at 1 ug/ml) in block were added and incubated for ninety minutes. Plates were washed three times with PBST and incubated with 1:2,000 HRP-labelled goat anti-human kappa (Southern Biotech cat#2060-05) and HRP-labelled goat anti-human lambda (Southern Biotech cat#2070-05) in block for one hour at room temperature. Plates were washed three times with PBST, developed with TMB solution for 5 minutes, and stopped with equal volume 1 N H₂SO₄. Absorbance values were read at 450 nm.

Her2-Fc D1-D2 (MR067) = target: T4, Her2-Fc D1-D2 (MR067); test: as above
T4 construct: also called ErbB2-Fc Domains 1-2
T4 chain: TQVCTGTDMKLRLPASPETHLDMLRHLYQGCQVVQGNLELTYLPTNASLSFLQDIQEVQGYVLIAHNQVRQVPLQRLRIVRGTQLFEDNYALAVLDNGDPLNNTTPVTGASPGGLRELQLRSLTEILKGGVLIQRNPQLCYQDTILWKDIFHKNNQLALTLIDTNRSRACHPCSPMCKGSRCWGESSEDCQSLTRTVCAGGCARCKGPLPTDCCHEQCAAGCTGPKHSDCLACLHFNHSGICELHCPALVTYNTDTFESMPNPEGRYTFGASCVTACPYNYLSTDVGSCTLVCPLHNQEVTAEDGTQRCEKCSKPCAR
Description: as §1

Her2-Fc D1-D2-D3 (MR068) = target: T5, Her2-Fc D1-D2-D3 (MR068); test: as above
T5 construct: also called ErbB2-Fc Domains 1-3
Description: as §1

[2] = target: T6, Her2-Fc D1-D2-D3-D4 (MR069); test: as above
T6 construct: made in house, kept apart from the R&D Systems HER2-Fc; also called ErbB2-Fc full length ECD
Description: as §1

human HER2-Fc [3] = target: T7, human HER2-Fc (human, UniProt P04626 23-652); test: ELISA on coated huHER2-Fc, HRP anti-human kappa; the number is C of the printed 4-P fit y=(A-D)/(1+(x/C)^B)+D (A -0.004, B 0.92, D 0.931, R^2 1); x axis: Fab equivalent concentration; last point about 13000 ng/ml at OD about 0.73, upper plateau not reached by the points
T7 construct: Bought from R&D Systems: homodimeric fusion of the HER2 extracellular domain and human IgG1 Fc; also called human ErbB2-Fc; rhErbB2-Fc; not shown: Fc fragment of human IgG1

murine HER2-Fc [4] = target: T8, murine HER2-Fc (mouse; human, UniProt P70424 23-653); test: ELISA on coated muHER2-Fc, HRP anti-human kappa; the number is C of the printed 4-P fit y=(A-D)/(1+(x/C)^B)+D (A 0.002, B 0.792, D 0.827, R^2 0.999); x axis: Fab equivalent concentration; C lies beyond the last point (about 14000 ng/ml, OD about 0.28): extrapolated by the fit
T8 construct: extracellular domain; Bought from R&D Systems; also called murine ErbB2-Fc; not shown: Fc fragment of human IgG1

human HER2-Fc [5] = target: T7, human HER2-Fc; test: ELISA on coated HER2-Fc
Description: Human and murine ErbB2-Fc were obtained from R&D Systems. Wells of 96-well plates were coated with 2 ug/ml or 0.2 ug/ml of human or murine HER2-Fc by incubation overnight at 4-8° C. with either of these six proteins (80 ul/well of a 0.2 or 2 ug/ml solution in PBS). Wells were emptied, filled completely with a solution of PBS with 1% BSA (blocking buffer) and incubated at room temperature for 1 hour. Wells were emptied, washed twice PBS containing 0.05% Tween 20 (PBST) and filled with the samples (80 ul/well of 3× dilution series of the standard and supernatants in blocking buffer) prepared in another 96-well plate. After a 2-hour incubation at room temperature, the wells were emptied, washed three times with PBST and filled with a solution of HRP-conjugated goat pAbs anti-human kappa chain (80 ul/well of a 2000-fold dilution in blocking buffer). After 1-hour incubation, the wells were emptied and filled with a solution of HRP substrate prepared freshly. The color was left to develop for 3 minutes and was stopped by addition of an equal volume of 1N H₂SO₄. Absorbance was measured at 450 nm using a Plate Reader (SpectraMax, Molecular Devices). The data was processed and graphs were created using SoftMax Pro software.

[6] = target: T2, human HER2/ErbB2 on cells; test: FACS on HER2-expressing cells
human HER2-Fc [7] = target: T7, human HER2-Fc; test: ELISA on coated huHER2-Fc, HRP anti-human kappa; the number is C of the printed 4-P fit (A 0.008, B 1.216, D 0.834, R^2 1); x axis: Fab equivalent concentration
murine HER2-Fc [8] = target: T8, murine HER2-Fc; test: ELISA on coated muHER2-Fc, HRP anti-human kappa; the number is C of the printed 4-P fit (A -0.002, B 0.6, D 1.035, R^2 1); x axis: Fab equivalent concentration; C lies beyond the last point (about 120 ng/ml, OD about 0.4): extrapolated by the fit

- binding result (EGFR on MDA-MB-468 cells): no binding
- EC50 [1]: 60 nM
- binding result (Her2-Fc D1 (MR066)): no binding (tested: 1 ug/ml)
- binding result (Her2-Fc D1-D2 (MR067)): binds
- binding result (Her2-Fc D1-D2-D3 (MR068)): binds
- binding result [2]: binds
- EC50 (human HER2-Fc [3]): 3.43 µg/mL
- EC50 (murine HER2-Fc [4]): 31.8 µg/mL
B1: BIIB71F10 Fab (Fab, V domains shown)
VH: EVQLLESGGGLVQPGGSLRLSCAASGFTFSSYGMVWVRQAPGKGLEWVSSISSSGGLTWYADSVKGRFTISRDNSKNTLYLQMNSLRAEDTAVYYCASPPGIAVARDYWGQGTLVTVSS
VL: DIQMTQSPSSLSASVGDRVTITCRASQGISNYLAWYQQKPGKVPKLLIYAASTLQSGVPSRFSGSGSGTDFTLTISSLQPEDVATYYCQKYNSALLTFGGGTKVEIK
notes: Soluble human Fab; also called Fab 71F10

- EC50 (human HER2-Fc [5]): 0.07 nM
- EC50 [6]: 2 nM
- EC50 (human HER2-Fc [7]): 0.00634 µg/mL
- EC50 (murine HER2-Fc [8]): 0.248 µg/mL
B2: BIIB71F10 Mab (BIIB71F10-134, 71F10 IgG) (antibody, V domains shown)
VH: B1 VH
VL: DIQMTQSPSSLSASVGDRVTITCRASQGISNYLAWYQQKPGKVPKLLIYAASTLQSGVPSRFSGSGSGTDFTLTISSLQPEDVATYYCQKYNSALLTFGGGTKVEIKR
notes: IgG1; also called BIIB71-F10 antibody
